According to patent publication EP3411068A2 (dated 2018):

What was measured:
[1] = biological target: T1, human VEGFR2-Fc (human, UniProt P35968 20-764); experiment: dose response ELISA, antigen-Fc coated, HRP anti-human Fab
T1 construct: also called hVEGFR2; recombinant human VEGFR2

[2] = biological target: T2, mouse VEGFR2-Fc (mouse, UniProt P35918 20-762); experiment: as above
T2 construct: also called mVEGFR2; recombinant mouse VEGFR2

[3] = biological target: T2, mouse VEGFR2-Fc; experiment: blocking ELISA, mVEGFR2-Fc binding to coated mVEGF
[4] = biological target: T1, human VEGFR2-Fc; experiment: SPR (Biacore), hVEGFR-Fc immobilized on CM5, antibody injected, 1:1 Langmuir
[5] = biological target: T1, human VEGFR2-Fc; experiment: blocking ELISA, hVEGFR2-Fc binding to coated hVEGF
[6] = biological target: T3, human VEGFR2 expressed on KDR-PAE cells (human, UniProt P35968 20-1356); experiment: flow cytometry on KDR-PAE cells
T3 construct: whole, on cells; also called PAE-KDR; KDR-PAE (hVEGFR2)

[7] = biological target: T4, human PDL1-Fc (human, UniProt Q9NZQ7 19-238); experiment: SPR (Biacore), hPDL1-Fc immobilized on CM5, antibody injected, 1:1 Langmuir
T4 construct: also called hPDL1; hPDLl

[8] = biological target: T5, mouse PDL1-Fc (mouse, UniProt Q9EP73 19-239, limits assumed); experiment: dose response ELISA, antigen-Fc coated, HRP anti-human Fab
T5 construct: also called mPDL1; mPDLl

[9] = biological target: T4, human PDL1-Fc; experiment: as above
[10] = biological target: T6, mouse PDL1 expressed on B16-F10 cells (mouse, UniProt Q9EP73 19-290); experiment: flow cytometry on B16-F10 cells
T6 construct: whole, on cells; also called B16-F10 (mPDLl); cell expressed mouse PDL1

[11] = biological target: T5, mouse PDL1-Fc; experiment: blocking ELISA, biotin mPDL1-Fc binding to immobilized mPD1
[12] = biological target: T7, human PDL1 expressed on MDA-MB-231 cells (human, UniProt Q9NZQ7 19-290); experiment: flow cytometry on MDA-MB-231 cells
T7 construct: whole, on cells; also called cell expressed human PDL1

[13] = biological target: T4, human PDL1-Fc; experiment: blocking ELISA, biotin hPDL1-Fc binding to immobilized hPD1
[14] = biological target: T4, human PDL1-Fc; experiment: binding assay as in Example 2 (Figure 42)
[15] = biological target: T1, human VEGFR2-Fc; experiment: binding assay as in Example 2 (Figure 42)

T2 sequence (P35918 20-762 limits assumed): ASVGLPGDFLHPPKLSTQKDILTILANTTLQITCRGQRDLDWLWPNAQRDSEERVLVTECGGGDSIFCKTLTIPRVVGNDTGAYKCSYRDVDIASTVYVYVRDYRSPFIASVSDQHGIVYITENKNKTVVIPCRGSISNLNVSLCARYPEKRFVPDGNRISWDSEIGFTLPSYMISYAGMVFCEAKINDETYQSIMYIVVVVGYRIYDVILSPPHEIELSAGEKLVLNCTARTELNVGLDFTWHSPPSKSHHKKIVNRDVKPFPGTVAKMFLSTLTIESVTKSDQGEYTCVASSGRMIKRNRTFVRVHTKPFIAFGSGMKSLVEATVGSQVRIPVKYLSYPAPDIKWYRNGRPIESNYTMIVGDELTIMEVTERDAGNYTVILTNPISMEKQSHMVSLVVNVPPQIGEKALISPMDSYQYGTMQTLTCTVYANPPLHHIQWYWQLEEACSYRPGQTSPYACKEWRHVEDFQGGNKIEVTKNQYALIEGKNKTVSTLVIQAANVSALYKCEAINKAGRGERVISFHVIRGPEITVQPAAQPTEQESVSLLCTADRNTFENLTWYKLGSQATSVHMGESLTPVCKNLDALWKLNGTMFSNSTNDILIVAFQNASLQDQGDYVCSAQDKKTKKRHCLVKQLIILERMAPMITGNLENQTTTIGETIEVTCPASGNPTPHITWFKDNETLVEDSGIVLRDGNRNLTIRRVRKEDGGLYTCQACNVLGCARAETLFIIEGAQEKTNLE
T5 sequence (Q9EP73 19-239 limits assumed): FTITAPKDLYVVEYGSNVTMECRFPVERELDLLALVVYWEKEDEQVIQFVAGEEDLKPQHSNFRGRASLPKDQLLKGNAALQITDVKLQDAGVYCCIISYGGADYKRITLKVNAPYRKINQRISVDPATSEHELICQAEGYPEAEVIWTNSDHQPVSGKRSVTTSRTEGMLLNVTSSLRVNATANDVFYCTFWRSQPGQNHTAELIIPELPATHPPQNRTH
T3 sequence (P35968 20-1356): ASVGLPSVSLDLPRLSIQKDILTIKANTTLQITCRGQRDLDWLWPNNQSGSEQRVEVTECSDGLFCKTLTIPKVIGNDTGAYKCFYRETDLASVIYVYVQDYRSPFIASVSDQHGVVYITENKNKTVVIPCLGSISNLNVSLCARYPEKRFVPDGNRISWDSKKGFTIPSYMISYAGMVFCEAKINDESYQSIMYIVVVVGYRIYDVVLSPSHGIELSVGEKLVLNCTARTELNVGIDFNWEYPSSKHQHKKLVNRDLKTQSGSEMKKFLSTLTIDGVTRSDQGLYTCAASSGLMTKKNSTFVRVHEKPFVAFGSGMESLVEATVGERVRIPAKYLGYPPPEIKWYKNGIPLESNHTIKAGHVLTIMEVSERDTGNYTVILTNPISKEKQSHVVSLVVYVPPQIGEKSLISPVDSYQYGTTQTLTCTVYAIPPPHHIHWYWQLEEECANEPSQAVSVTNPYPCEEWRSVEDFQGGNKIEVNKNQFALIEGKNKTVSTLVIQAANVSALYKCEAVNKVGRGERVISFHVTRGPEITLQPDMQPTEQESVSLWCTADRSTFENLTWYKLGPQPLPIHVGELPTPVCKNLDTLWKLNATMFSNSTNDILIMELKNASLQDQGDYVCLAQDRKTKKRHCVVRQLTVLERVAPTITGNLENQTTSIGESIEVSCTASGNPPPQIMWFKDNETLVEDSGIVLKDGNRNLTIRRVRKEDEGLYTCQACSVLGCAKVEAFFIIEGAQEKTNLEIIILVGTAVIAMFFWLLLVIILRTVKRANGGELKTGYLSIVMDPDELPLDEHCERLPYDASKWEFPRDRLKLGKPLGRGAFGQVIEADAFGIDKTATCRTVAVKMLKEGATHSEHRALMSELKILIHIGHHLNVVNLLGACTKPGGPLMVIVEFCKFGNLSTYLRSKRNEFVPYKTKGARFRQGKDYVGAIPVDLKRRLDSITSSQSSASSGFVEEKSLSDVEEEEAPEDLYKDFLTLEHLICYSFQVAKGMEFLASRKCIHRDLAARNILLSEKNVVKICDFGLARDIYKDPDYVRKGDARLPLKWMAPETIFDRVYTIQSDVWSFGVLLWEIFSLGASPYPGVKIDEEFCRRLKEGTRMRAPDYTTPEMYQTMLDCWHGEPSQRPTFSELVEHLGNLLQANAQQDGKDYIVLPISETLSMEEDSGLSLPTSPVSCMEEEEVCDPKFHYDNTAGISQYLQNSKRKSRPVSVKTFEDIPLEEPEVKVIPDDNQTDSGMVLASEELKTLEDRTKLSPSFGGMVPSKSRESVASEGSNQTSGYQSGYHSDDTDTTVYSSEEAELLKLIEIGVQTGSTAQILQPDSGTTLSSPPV
T1 sequence (P35968 20-764 limits assumed): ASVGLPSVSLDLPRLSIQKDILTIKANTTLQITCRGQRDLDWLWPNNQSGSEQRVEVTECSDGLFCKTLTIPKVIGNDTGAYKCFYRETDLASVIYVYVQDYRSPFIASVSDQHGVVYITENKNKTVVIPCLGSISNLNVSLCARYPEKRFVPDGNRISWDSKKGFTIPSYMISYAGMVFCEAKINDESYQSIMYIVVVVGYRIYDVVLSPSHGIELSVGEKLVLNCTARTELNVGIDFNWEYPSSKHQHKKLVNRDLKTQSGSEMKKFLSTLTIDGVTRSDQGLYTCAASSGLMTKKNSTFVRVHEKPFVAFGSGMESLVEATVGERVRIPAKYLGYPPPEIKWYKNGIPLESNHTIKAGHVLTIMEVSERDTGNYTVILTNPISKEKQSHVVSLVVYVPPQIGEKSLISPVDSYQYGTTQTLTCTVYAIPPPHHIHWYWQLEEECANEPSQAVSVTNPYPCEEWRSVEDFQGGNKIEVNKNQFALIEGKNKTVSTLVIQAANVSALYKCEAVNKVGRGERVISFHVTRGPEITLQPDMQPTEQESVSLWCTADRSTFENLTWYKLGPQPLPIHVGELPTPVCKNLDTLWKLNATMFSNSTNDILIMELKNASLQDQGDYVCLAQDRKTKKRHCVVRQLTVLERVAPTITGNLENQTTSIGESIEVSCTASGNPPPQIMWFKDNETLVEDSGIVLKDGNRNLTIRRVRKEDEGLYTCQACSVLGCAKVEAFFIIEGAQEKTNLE
T4 sequence (Q9NZQ7 19-238 limits assumed): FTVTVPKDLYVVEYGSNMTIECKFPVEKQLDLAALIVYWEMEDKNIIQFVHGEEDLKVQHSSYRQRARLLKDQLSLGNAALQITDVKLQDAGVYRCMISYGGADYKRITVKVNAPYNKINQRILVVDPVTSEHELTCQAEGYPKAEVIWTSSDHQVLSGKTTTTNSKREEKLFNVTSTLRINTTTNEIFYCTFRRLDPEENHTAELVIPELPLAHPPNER
T6 sequence (Q9EP73 19-290): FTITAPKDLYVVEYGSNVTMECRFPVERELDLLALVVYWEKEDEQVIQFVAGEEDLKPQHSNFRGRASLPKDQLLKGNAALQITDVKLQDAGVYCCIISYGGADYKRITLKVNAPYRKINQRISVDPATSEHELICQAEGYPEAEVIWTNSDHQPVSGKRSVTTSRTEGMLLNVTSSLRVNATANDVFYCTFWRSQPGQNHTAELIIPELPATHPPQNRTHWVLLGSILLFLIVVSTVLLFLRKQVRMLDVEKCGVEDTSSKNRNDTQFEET
T7 sequence (Q9NZQ7 19-290): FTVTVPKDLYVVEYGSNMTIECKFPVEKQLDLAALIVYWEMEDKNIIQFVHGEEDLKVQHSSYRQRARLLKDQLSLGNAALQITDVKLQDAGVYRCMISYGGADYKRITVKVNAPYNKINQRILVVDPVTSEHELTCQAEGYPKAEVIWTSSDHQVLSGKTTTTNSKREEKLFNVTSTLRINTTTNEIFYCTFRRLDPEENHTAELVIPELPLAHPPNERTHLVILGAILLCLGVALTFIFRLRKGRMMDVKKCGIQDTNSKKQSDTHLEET

EC50 [1] [nM] | Kd [4] [nM] | IC50 [5] [nM] | EC50 [6] [nM] | binding result [14] | binding result [15] | Binder | also measured
0.107 | 0.052 | 1.72 | 0.522 |  |  | B1C4A7 (antibody, human IgG1, kappa, V domains shown, Parental mono-specific anti-VEGFR2 IgG1; also called anti-VEGFR2 antibody B1C4A7) VH: EVQLLESGGGLVQPGGSLRLSCAASGFTFSWYVMGWVRQAPGKGLEWVSSIYPQGGATSYADSVKGRFTISRDNSKNTLYLQMNSLRAEDTAVYYCARGNYFDYWGQGTLVTVSS VL: DIQMTQSPGTLSLSPGEGATLSCRASQSVSSNYFGWYQQKPGQAPRLLIYGASSRATGIPDRFSGSGSGTDFTLTISRLEPEDSAVYYCQQFDSLPLTFGGGTKVEIKR | EC50 [2]: 0.466 nM; IC50 [3]: 0.973 nM
0.128 | ~0.047 | 1.29 | 0.533 |  |  | BsAb (A7-A8)-LALA (bispecific antibody, human IgG1, kappa, LALA version: leucines 234 and 235 of the IgG1 CH2 mutated to alanine; also called bi-specific antibody A7-A8) heavy: not shown light: DIQMTQSPGTLSLSPGEGATLSCRASQSVSSNYFGWYQQKPGQAPRLLIYGASSRATGIPDRFSGSGSGTDFTLTISRLEPEDSAVYYCQQFDSLPLTFGGGTKVEIKRTVAAPSVFIFPPSDEQLKSGTASVVCLLNNFYPREAKVQWKVDNALQSGNSQESVTEQDSKDSTYSLSSTLTLSKADYEKHKVYACEVTHQGLSSPVTKSFNRGEC | Kd [7]: ~0.0012 nM; EC50 [8]: 0.137 nM; EC50 [9]: 0.079 nM; EC50 [2]: 0.598 nM; IC50 [3]: 0.801 nM; EC50 [10]: 0.122 nM; IC50 [11]: 5.59 nM; EC50 [12]: 0.223 nM; IC50 [13]: 2.51 nM
 |  |  |  | binds | binds | BsAb (A11-B1A1) (bispecific antibody, human IgG1, kappa, L234A L235A) heavy: not shown light: DIQMTQSPSSLSASVGDRVTITCRASQTVSKYFNWFQQKPGEAPKLLIYATSTLQSGVPSRFSGSGYGTEFTLTISSLQPEDFATYYCQQSYTTPWTFGQGTKVEIKRTVAAPSVFIFPPSDEQLKSGTASVVCLLNNFYPREAKVQWKVDNALQSGNSQESVTEQDSKDSTYSLSSTLTLSKADYEKHKVYACEVTHQGLSSPVTKSFNRGEC | 
 |  |  |  | binds | binds | BsAb (A11-B1A1)_30 (bispecific antibody, human IgG1, kappa, L234A L235A) heavy: not shown light: DIQMTQSPSSLSASVGDRVTITCRASQTVSKYFNWFQQKPGEAPKLLIYATSTLQSGVPSRFSGSGYGTEFTLTISSLQPEDFATYYCQQSYTTPWTFGQGTKVEIKRTVAAPSVFIFPPSDEQLKSGTASVVCLLNNFYPREAKVQWKVDNALQSGNSQESVTEQDSKDSTYSLSSTLTLSKADYEKHKVYACEVTHQGLSSPVTKSFNRGEC | 
 |  |  |  | binds | binds | BsAb (A11-B1A1)_30cc (bispecific antibody, human IgG1, kappa, L234A L235A, Variant of BsAb (A11-B1A1), apparently with the 30GS linker and an added disulfide bond in the scFv; also called BsAb (Al l-BlAl)_30cc) heavy: not shown light: DIQMTQSPSSLSASVGDRVTITCRASQTVSKYFNWFQQKPGEAPKLLIYATSTLQSGVPSRFSGSGYGTEFTLTISSLQPEDFATYYCQQSYTTPWTFGQGTKVEIKRTVAAPSVFIFPPSDEQLKSGTASVVCLLNNFYPREAKVQWKVDNALQSGNSQESVTEQDSKDSTYSLSSTLTLSKADYEKHKVYACEVTHQGLSSPVTKSFNRGEC | 
 |  |  |  | binds | binds | BsAb (D7A8-B1A1) (bispecific antibody, human IgG1, lambda, L234A L235A) heavy: not shown light: QSALTQPASVSGSPGQSITISCTGTSSDVGAYNYVSWYQQHPGKAPKLMIYDVSNRPSGVSNRFSGSKSGNTASLTISGLQAEDEADYYCSSYTSSSTRVFGTGTKVTVLGQPKAAPSVTLFPPSSEELQANKATLVCLISDFYPGAVTVAWKADSSPVKAGVETTKPSKQSNNKYAASSYLSLTPEQWKSHRSYSCQVTHEGSTVEKTVAPTECS | 
 |  |  |  | binds | binds | BsAb (D7A8-B1A1)_30 (bispecific antibody, human IgG1, lambda, L234A L235A, Variant of BsAb (D7A8-B1A1), apparently with the 30GS linker) heavy: not shown light: QSALTQPASVSGSPGQSITISCTGTSSDVGAYNYVSWYQQHPGKAPKLMIYDVSNRPSGVSNRFSGSKSGNTASLTISGLQAEDEADYYCSSYTSSSTRVFGTGTKVTVLGQPKAAPSVTLFPPSSEELQANKATLVCLISDFYPGAVTVAWKADSSPVKAGVETTKPSKQSNNKYAASSYLSLTPEQWKSHRSYSCQVTHEGSTVEKTVAPTECS | 
 |  |  |  | binds | binds | BsAb (D7A8-B1A1)_30cc (bispecific antibody, human IgG1, lambda, L234A L235A, Variant of BsAb (D7A8-B1A1), apparently with the 30GS linker and an added disulfide bond in the scFv; also called BsAb (D7A8-BlAl)_30cc) heavy: not shown light: QSALTQPASVSGSPGQSITISCTGTSSDVGAYNYVSWYQQHPGKAPKLMIYDVSNRPSGVSNRFSGSKSGNTASLTISGLQAEDEADYYCSSYTSSSTRVFGTGTKVTVLGQPKAAPSVTLFPPSSEELQANKATLVCLISDFYPGAVTVAWKADSSPVKAGVETTKPSKQSNNKYAASSYLSLTPEQWKSHRSYSCQVTHEGSTVEKTVAPTECS | 
0.128 | ~0.2 | 1.19 | 0.779 |  |  | BsAb (A1-A8)-LALA (bispecific antibody, human IgG1, lambda, LALA version: leucines 234 and 235 of the IgG1 CH2 mutated to alanine; also called bi-specific antibody A1-A8; A18) heavy: not shown light: QSVLTQPPSVSVSPGQTASITCSGEKLGDEYASWYQQKPGQSPVLVIYQDNKRPSGIPERFSGSNSGNTATLTISGTQAMDEADYYCQAWDSSTLLFGGGTKLTVLGQPKAAPSVTLFPPSSEELQANKATLVCLISDFYPGAVTVAWKADSSPVKAGVETTKPSKQSNNKYAASSYLSLTPEQWKSHRSYSCQVTHEGSTVEKTVAPTECS | Kd [7]: ~0.0032 nM; EC50 [8]: 0.16 nM; EC50 [9]: 0.088 nM; EC50 [10]: 0.113 nM; IC50 [11]: 3.2 nM; EC50 [12]: 0.402 nM; IC50 [13]: 2.51 nM
